Results taken from publication PMC12260418 (Proceedings of the National Academy of Sciences of the …, 2025).
Residue numbers refer to the chain shown, from its start. One block for each molecule: values may come before it. Where no end group is shown, it is not given here.

B1: Recombinant TEAD1 (S210-D426) (domain or fragment)
chain: SIGTTKLRLVEFSAFLEQQRDPDSYNKHLFVHIGHANHSYSDPLLESVDIRQIYDKFPEKKGGLKELFGKGPQNAFFLVKFWADLNCNIQDDAGAFYGVTSQYESSENMTVTCSTKVCSFGKQVVEKVETEYARFENGRFVYRINRSPMCEYMINFIHKLKHLPEKYMMNSVLENFTILLVVTNRDTQETLLCMACVFEVSNSEHGAQHHIYRLVKD
B2: biotinylated WT VGLL4 peptide (residues 202-259) (peptide)
peptide: ATTCDPVVEEHFRRSLGKNYKEPEPAPNSVSITGSVDDHFAKALGDTWLQIKAAKDGA
modifications: also: biotinylated, position not given here
B3: biotinylated VGLL4 peptide (residues 202-259), TDU1 mutant (peptide)
peptide: B2 peptide with H11A, F12A
modifications: also: biotinylated, position not given here

Experiments:
TEAD1 = TEAD1 (Homo sapiens, UniProt P28347); test: SPR of recombinant TEAD1 and VGLL4 peptide with compound; type: binding
[1] = target: B2; test: SPR
[2] = target: B2; test: SPR; remark: listed apart in the source
[3] = target: B1; test: SPR

- SPR of recombinant TEAD1 and VGLL4 peptide with compound; TEAD1 AP-MS in cells (TEAD1): ~ 2 fold change in VGLL4-TEAD1 KD
Molecule: GNE-7883

Molecule: B1
- fold increase in affinity with VT-103 against DMSO [1]: ~12 fold
- fold decrease of KD with GNE-7883 against DMSO [2]: ~2 fold

Molecule: B2
- Kd [3]: ~500 nM

Molecule: B3
- binding result [3]: binds
